Data reported in publication PMC13395435.
Values joined by “and” are separate entries in the source; they are usually repeats but may differ in a detail not shown here. Equal values may be shown once.

Assays:
3xHA-NLuc-dSP-AVR-Pia = 3xHA-NLuc-dSP-AVR-Pia (UniProt B9WZW9); test: split luciferase complementation assay; details: parent: est. 3400; read off a plot
OsHPP09-HMA (rice) = test: ITC
OsHPP11-HMA (rice) = test: ITC
OsHIPP21-HMA (rice) = test: ITC
OsHPP10-HMA (rice) = test: ITC
[1] = target: recombinant OsHPP09-HMA (rice); test: NMR titration
[2] = target: recombinant OsHPP10-HMA (rice); test: ITC
[3] = target: recombinant OsHPP11-HMA (rice); test: ITC
[4] = target: recombinant OsHIPP21-HMA (rice); test: ITC
[5] = target: recombinant OsHPP09-HMA (rice); test: ITC

## 3xFlag-CLuc-OsHPP09 full-length A37W
3xHA-NLuc-dSP-AVR-Pia
  response: 1300

## 3xFlag-CLuc-OsHPP09 full-length D33A
3xHA-NLuc-dSP-AVR-Pia
  response: 2800

## 3xFlag-CLuc-OsHPP09 full-length D33H
3xHA-NLuc-dSP-AVR-Pia
  response: 2600

## 3xFlag-CLuc-OsHPP09 full-length D33R
3xHA-NLuc-dSP-AVR-Pia
  response: 2000

## 3xFlag-CLuc-OsHPP09 full-length K19A
3xHA-NLuc-dSP-AVR-Pia
  response: 1800

## 3xFlag-CLuc-OsHPP09 full-length K19W
3xHA-NLuc-dSP-AVR-Pia
  response: 1500

## 3xFlag-CLuc-OsHPP09 full-length Q20A
3xHA-NLuc-dSP-AVR-Pia
  response: 3100

## AVR-Pia (natural protein)
OsHPP09-HMA (rice)
  Kd: 0.125 µM and 0.185 µM
OsHPP11-HMA (rice)
  Kd: 0.925 µM and 0.929 µM
OsHIPP21-HMA (rice)
  Kd: 1.97 µM and 2.33 µM
OsHPP10-HMA (rice)
  Kd: 6.51 µM and 7.47 µM

## recombinant AVR-Pia (from UniProt B9WZW9 1-85) (natural protein)
[1]
  Kd: < 0.1 µM
[2]
  Kd: 5.26 µM
[3]
  Kd: 0.772 µM
[4]
  Kd: 1.29 µM
[5]
  Kd: 0.115 µM
